Here are results for seven variants from FireProtDB (doi:10.1016/j.bbadis.2004.06.012).

The term Tm denotes the temperature at the midpoint of the melting transition.

The labels stand for the following.
B1: Aryl-hydrocarbon-interacting protein-like 1, Q9NZN9 (parent)
chain: MDAALLLNVEGVKKTILHGGTGELPNFITGSRVIFHFRTMKCDEERTVIDDSRQVGQPMHIIIGNMFKLEVWEILLTSMRVHEVAEFWCDTIHTGVYPILSRSLRQMAQGKDPTEWHVHTCGLANMFAYHTLGYEDLDELQKEPQPLVFVIELLQVDAPSDYQRETWNLSNHEKMKAVPVLHGEGNRLFKLGRYEEASSKYQEAIICLRNLQTKEKPWEVQWLKLEKMINTLILNYCQCLLKKEEYYEVLEHTSDILRHHPGIVKAYYVRARAHAEVWNEAEAKADLQKVLELEPSMQKAVRRELRLLENRMAEKQEEERLRCRNMLSQGATQPPAEPPTEPPAQSSTEPPAEPPTAPSAELSAGPPAEPATEPPPSPGHSLQH

Variants of B1 are the subject of this data set. To be noted: Homo sapiens; pH 7.9; Thermal; CD; sodium Phosphate 5 mM; transition: 2; whole UniProt chain shown.

Take C239R: the Tm is 46.7 °C and the “change of melting temperature, mutant - wild type (higher = more stable)” value (“change of melting temperature, mutant” below) came out at 2.6 °C.

Turning to I206N, the melting temperature (Tm) was determined as 41.4 °C and the “change of melting temperature, mutant” value is -2.7 °C.

Consider G262S, for which the Tm turned out to be 40.1 °C and the “change of melting temperature, mutant” value is -4 °C.

As to T114I, the midpoint of thermal melting (Tm) is 34.8 °C and the “change of melting temperature, mutant” value was -9.3 °C.

On to A197P, for which the Tm was found to be 40.5 °C and the “change of melting temperature, mutant” value is -3.6 °C.

In the case of R302L, the Tm is 43.2 °C and the “change of melting temperature, mutant” value is -0.9 °C.

Turning to W278X, the Tm was found to be 33.2 °C and the “change of melting temperature, mutant” value was -10.9 °C.
